Experimental data: PMC5409479

Key:
[1] = molecular target: wild-type human glucagon-like peptide-1 receptor (double c-Myc, V5) (human) (UniProt P43220)
[2] = molecular target: human GLP-1R R121azF (human) (UniProt P43220)
[3] = molecular target: human GLP-1R S117azF (human) (UniProt P43220)
[4] = molecular target: human GLP-1R F103azF (human) (UniProt P43220)
[5] = molecular target: human GLP-1R V36azF (human) (UniProt P43220)
[6] = molecular target: human GLP-1R P119azF (human) (UniProt P43220)
human GLP-1R P119azF (human), sequence (P43220 24-463 P119F): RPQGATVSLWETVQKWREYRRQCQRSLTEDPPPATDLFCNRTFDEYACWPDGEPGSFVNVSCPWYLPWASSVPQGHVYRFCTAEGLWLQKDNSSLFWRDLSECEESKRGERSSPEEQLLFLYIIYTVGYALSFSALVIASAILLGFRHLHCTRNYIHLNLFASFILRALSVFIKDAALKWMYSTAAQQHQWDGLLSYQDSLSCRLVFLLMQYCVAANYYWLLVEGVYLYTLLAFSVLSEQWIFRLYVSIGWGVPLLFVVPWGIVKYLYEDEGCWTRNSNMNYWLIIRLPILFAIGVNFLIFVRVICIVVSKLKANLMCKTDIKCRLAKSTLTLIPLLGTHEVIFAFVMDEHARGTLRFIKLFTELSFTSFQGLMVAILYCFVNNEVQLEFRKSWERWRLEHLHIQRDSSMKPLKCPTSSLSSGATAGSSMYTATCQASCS

[7] = molecular target: human GLP-1R Y69azF (human) (UniProt P43220)
human GLP-1R Y69azF (human), sequence (P43220 24-463 Y69F): as the sequence (P43220 24-463 P119F) above, with Y46F, F96P counted along it

[8] = molecular target: human GLP-1R E68azF (human) (UniProt P43220)
human GLP-1R E68azF (human), sequence (P43220 24-463 E68F): as the sequence (P43220 24-463 P119F) above, with E45F, F96P counted along it

[9] = molecular target: human GLP-1R W91azF (human) (UniProt P43220)
human GLP-1R W91azF (human), sequence (P43220 24-463 W91F): as the sequence (P43220 24-463 P119F) above, with W68F, F96P counted along it

[10] = molecular target: human GLP-1R S135azF (human) (UniProt P43220)
human GLP-1R S135azF (human), sequence (P43220 24-463 S135F): as the sequence (P43220 24-463 P119F) above, with F96P, S112F counted along it

[11] = molecular target: human GLP-1R W39azF (human) (UniProt P43220)
human GLP-1R W39azF (human), sequence (P43220 other isoform, or with tags, fused parts or gaps): as the sequence (P43220 24-463 P119F) above, with W16F, F96P counted along it

[12] = molecular target: human GLP-1R V30azF (human) (UniProt P43220)
human GLP-1R V30azF (human), sequence (P43220 other isoform, or with tags, fused parts or gaps): as the sequence (P43220 24-463 P119F) above, with V7F, F96P counted along it

[13] = molecular target: human GLP-1R T35azF (human) (UniProt P43220)
human GLP-1R T35azF (human), sequence (P43220 other isoform, or with tags, fused parts or gaps): as the sequence (P43220 24-463 P119F) above, with T12F, F96P counted along it

[14] = molecular target: human GLP-1R S124azF (human) (UniProt P43220)
human GLP-1R S124azF (human), sequence (P43220 24-463 S124F): as the sequence (P43220 24-463 P119F) above, with F96P, S101F counted along it

[15] = molecular target: human GLP-1R P90azF (human) (UniProt P43220)
human GLP-1R P90azF (human), sequence (P43220 24-463 P90F): as the sequence (P43220 24-463 P119F) above, with P67F, F96P counted along it

[16] = molecular target: human GLP-1R S31azF (human) (UniProt P43220)
human GLP-1R S31azF (human), sequence (P43220 other isoform, or with tags, fused parts or gaps): as the sequence (P43220 24-463 P119F) above, with S8F, F96P counted along it

[17] = molecular target: human GLP-1R R134azF (human) (UniProt P43220)
human GLP-1R R134azF (human), sequence (P43220 24-463 R134F): as the sequence (P43220 24-463 P119F) above, with F96P, R111F counted along it

[18] = molecular target: human GLP-1R L32azF (human) (UniProt P43220)
human GLP-1R L32azF (human), sequence (P43220 other isoform, or with tags, fused parts or gaps): as the sequence (P43220 24-463 P119F) above, with L9F, F96P counted along it

[19] = molecular target: human GLP-1R R40azF (human) (UniProt P43220)
human GLP-1R R40azF (human), sequence (P43220 other isoform, or with tags, fused parts or gaps): as the sequence (P43220 24-463 P119F) above, with R17F, F96P counted along it

[20] = molecular target: human GLP-1R L89azF (human) (UniProt P43220)
human GLP-1R L89azF (human), sequence (P43220 24-463 L89F): as the sequence (P43220 24-463 P119F) above, with L66F, F96P counted along it

[21] = molecular target: human GLP-1R E127azF (human) (UniProt P43220)
human GLP-1R E127azF (human), sequence (P43220 24-463 E127F): as the sequence (P43220 24-463 P119F) above, with F96P, E104F counted along it

[22] = molecular target: human GLP-1R E138azF (human) (UniProt P43220)
human GLP-1R E138azF (human), sequence (P43220 24-463 E138F): as the sequence (P43220 24-463 P119F) above, with F96P, E115F counted along it

[23] = molecular target: human GLP-1R Y88azF (human) (UniProt P43220)
human GLP-1R Y88azF (human), sequence (P43220 24-463 Y88F): as the sequence (P43220 24-463 P119F) above, with Y65F, F96P counted along it

[24] = molecular target: human GLP-1R F80azF (human) (UniProt P43220)
human GLP-1R F80azF (human), sequence (P43220 24-463): as the sequence (P43220 24-463 P119F) above, with F96P counted along it

[25] = molecular target: human GLP-1R E125azF (human) (UniProt P43220)
human GLP-1R E125azF (human), sequence (P43220 24-463 E125F): as the sequence (P43220 24-463 P119F) above, with F96P, E102F counted along it

[26] = molecular target: human GLP-1R Y101azF (human) (UniProt P43220)
human GLP-1R Y101azF (human), sequence (P43220 24-463 Y101F): as the sequence (P43220 24-463 P119F) above, with Y78F, F96P counted along it

[27] = molecular target: human GLP-1R L123azF (human) (UniProt P43220)
human GLP-1R L123azF (human), sequence (P43220 24-463 L123F): as the sequence (P43220 24-463 P119F) above, with F96P, L100F counted along it

[28] = molecular target: human GLP-1R W33azF (human) (UniProt P43220)
human GLP-1R W33azF (human), sequence (P43220 other isoform, or with tags, fused parts or gaps): as the sequence (P43220 24-463 P119F) above, with W10F, F96P counted along it

[29] = molecular target: human GLP-1R F61azF (human) (UniProt P43220)
human GLP-1R F61azF (human), sequence (P43220 24-463): as the sequence (P43220 24-463 P119F) above, with F96P counted along it

[30] = molecular target: human GLP-1R L118azF (human) (UniProt P43220)
human GLP-1R L118azF (human), sequence (P43220 24-463 L118F): as the sequence (P43220 24-463 P119F) above, with L95F, F96P counted along it

[31] = molecular target: human GLP-1R S116azF (human) (UniProt P43220)
human GLP-1R S116azF (human), sequence (P43220 24-463 S116F): as the sequence (P43220 24-463 P119F) above, with S93F, F96P counted along it

[32] = molecular target: human GLP-1R A70azF (human) (UniProt P43220)
human GLP-1R A70azF (human), sequence (P43220 24-463 A70F): as the sequence (P43220 24-463 P119F) above, with A47F, F96P counted along it

[33] = molecular target: human GLP-1R Y42azF (human) (UniProt P43220)
human GLP-1R Y42azF (human), sequence (P43220 other isoform, or with tags, fused parts or gaps): as the sequence (P43220 24-463 P119F) above, with Y19F, F96P counted along it

[34] = molecular target: wild-type human glucagon-like peptide-1 receptor (double c-Myc, V5) (human) (UniProt P43220); remark: listed apart in the source

wild-type human glucagon-like peptide-1 receptor (double c-Myc, V5) (human), sequence (P43220 24-463): as the sequence (P43220 24-463 P119F) above, with F96P counted along it
human GLP-1R R121azF (human), sequence (P43220 24-463 R121F): as the sequence (P43220 24-463 P119F) above, with F96P, R98F counted along it
human GLP-1R F103azF (human), sequence (P43220 24-463): as the sequence (P43220 24-463 P119F) above, with F96P counted along it
human GLP-1R S117azF (human), sequence (P43220 24-463 S117F): as the sequence (P43220 24-463 P119F) above, with S94F, F96P counted along it
human GLP-1R V36azF (human), sequence (P43220 other isoform, or with tags, fused parts or gaps): as the sequence (P43220 24-463 P119F) above, with V13F, F96P counted along it

exendin-4 (from UniProt P26349 48-87) (peptide)
exendin-4-mediated cAMP accumulation in HEK293T cells, pEC50 [1]: 10.8 -log10 M | exendin-4-mediated cAMP accumulation in HEK293T cells (+azF), pEC50 [2]: 10 -log10 M | exendin-4-mediated cAMP accumulation in HEK293T cells (+azF), pEC50 [3]: 11.1 -log10 M | exendin-4-mediated cAMP accumulation in HEK293T cells (+azF), pEC50 [4]: 11.4 -log10 M | exendin-4-mediated cAMP accumulation in HEK293T cells (+azF), pEC50 [5]: 11.4 -log10 M | exendin-4-mediated cAMP accumulation in HEK293T cells (+azF), pEC50 [6]: 11.4 -log10 M | exendin-4-mediated cAMP accumulation in HEK293T cells (+azF), pEC50 [7]: 10.8 -log10 M | exendin-4-mediated cAMP accumulation in HEK293T cells (+azF), pEC50 [8]: 11.4 -log10 M | exendin-4-mediated cAMP accumulation in HEK293T cells (+azF), pEC50 [9]: 11.5 -log10 M | exendin-4-mediated cAMP accumulation in HEK293T cells (+azF), pEC50 [10]: 11.5 -log10 M | exendin-4-mediated cAMP accumulation in HEK293T cells (+azF), pEC50 [11]: 10.6 -log10 M | exendin-4-mediated cAMP accumulation in HEK293T cells (+azF), pEC50 [12]: 11.2 -log10 M | exendin-4-mediated cAMP accumulation in HEK293T cells (+azF), pEC50 [13]: 9.5 -log10 M | exendin-4-mediated cAMP accumulation in HEK293T cells (+azF), pEC50 [14]: 11.4 -log10 M | exendin-4-mediated cAMP accumulation in HEK293T cells (+azF), pEC50 [15]: 9.9 -log10 M | exendin-4-mediated cAMP accumulation in HEK293T cells (+azF), pEC50 [16]: 11.1 -log10 M | exendin-4-mediated cAMP accumulation in HEK293T cells (+azF), pEC50 [17]: 11.1 -log10 M | exendin-4-mediated cAMP accumulation in HEK293T cells (+azF), pEC50 [18]: 11.1 -log10 M | exendin-4-mediated cAMP accumulation in HEK293T cells (+azF), pEC50 [19]: 11.5 -log10 M | exendin-4-mediated cAMP accumulation in HEK293T cells (+azF), pEC50 [20]: 9.6 -log10 M | exendin-4-mediated cAMP accumulation in HEK293T cells (+azF), pEC50 [21]: 10.8 -log10 M | exendin-4-mediated cAMP accumulation in HEK293T cells (+azF), pEC50 [22]: 11 -log10 M | exendin-4-mediated cAMP accumulation in HEK293T cells (+azF), pEC50 [23]: 10.6 -log10 M | exendin-4-mediated cAMP accumulation in HEK293T cells (+azF), pEC50 [24]: 11.3 -log10 M | exendin-4-mediated cAMP accumulation in HEK293T cells (+azF), pEC50 [25]: 10.3 -log10 M | exendin-4-mediated cAMP accumulation in HEK293T cells (+azF), pEC50 [26]: 11.5 -log10 M | exendin-4-mediated cAMP accumulation in HEK293T cells (+azF), pEC50 [27]: 11.2 -log10 M | exendin-4-mediated cAMP accumulation in HEK293T cells (+azF), pEC50 [28]: 11.4 -log10 M | exendin-4-mediated cAMP accumulation in HEK293T cells (+azF), pEC50 [29]: 11.3 -log10 M | exendin-4-mediated cAMP accumulation in HEK293T cells (+azF), pEC50 [30]: 11.5 -log10 M | exendin-4-mediated cAMP accumulation in HEK293T cells (+azF), pEC50 [31]: 11.4 -log10 M | exendin-4-mediated cAMP accumulation in HEK293T cells (+azF), pEC50 [32]: 9.1 -log10 M | exendin-4-mediated cAMP accumulation in HEK293T cells (+azF), pEC50 [33]: 10.6 -log10 M

fluorescein(Lys-20)-exendin-4 (peptide)
cAMP accumulation in HEK293T cells transiently expressing the human GLP-1R, pEC50 [34]: 9.3 -log10 M
